Results from patent US20040024178A1, “Bacterial signal peptidase inhibitors and uses thereof” (priority 1999, published 2004).

Assays:
[1] = target: T1, S. aureus SpsB signal peptidase (Staphylococcus aureus) (UniProt P0A070); assay: cell-based or functional assay
T1 sequence: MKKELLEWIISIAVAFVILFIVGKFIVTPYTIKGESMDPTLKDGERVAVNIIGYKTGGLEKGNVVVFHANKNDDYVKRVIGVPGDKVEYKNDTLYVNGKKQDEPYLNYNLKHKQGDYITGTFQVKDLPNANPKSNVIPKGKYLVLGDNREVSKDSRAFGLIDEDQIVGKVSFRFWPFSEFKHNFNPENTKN

[2] = target: T2, Decanoyl-Leu-Thr-Pro-Lys(Bio-X)-Ala-Lys-Ala-Ala-Ser-Lys-Lys(Flu)-Asp-Asp-OH
T2 chain: LTPKAKAASKKDD

[3] = target: T3, Decanoyl-Lys(TAMRA)-Thr-Pro-Thr-Ala-Lys-Ala-Ala-Ser-Lys-Lys(Flu)-Asp-Asp-OH, prep-hplc peak 24D
T3 chain: KTPTAKAASKKDD

[4] = target: T4, Decanoyl-Lys(Flu)-Thr-Pro-Thr-Ala-Lys-Ala-Ala-Ser-Lys-Lys(TAMRA)-Asp-Asp-OH, prep-hplc peak 23C
T4 chain: KTPTAKAASKKDD

[5] = target: T5, Decanoyl-Leu-Thr-Pro-Lys(Bio-X)-Ala-Lys-Ala-Ala-Ser-Lys-Ile-Asp-Asp-Gly-Lys(Flu)-Asp-OH
T5 chain: LTPKAKAASKIDDGKD

[6] = target: T6, Decanoyl-Lys(TAMRA)-Thr-Pro-Thr-Ala-Lys-Ala-Ala-Ser-Lys-Lys(Flu)-Asp-Asp-OH, prep-hplc peak 24C
T6 chain: KTPTAKAASKKDD

[7] = target: T7, Decanoyl-Lys(Flu)-Thr-Pro-Thr-Ala-Lys-Ala-Ala-Ser-Lys-Lys(Bio-X)-Asp-Asp-OH
T7 chain: KTPTAKAASKKDD

[8] = target: T8, Decanoyl-Lys(Bio-X)-Thr-Pro-Thr-Ala-Lys-Ala-Ala-Ser-Lys-Ile-Asp-Asp-Gly-Lys(Flu)-Asp-OH
T8 chain: KTPTAKAASKIDDGKD

“Decanoyl-Leu-Thr-Pro-Lys(Bio-X)-Ala-Lys-Ala-Ala-Ser-Lys-Lys(Flu)-Asp-Asp-OH (peptide)” was tested, and the signal change (fluorescence polarisation assay, developed with avidin) [1] was > 150 mP.

“Decanoyl-Lys(TAMRA)-Thr-Pro-Thr-Ala-Lys-Ala-Ala-Ser-Lys-Lys(Flu)-Asp-Asp-OH, prep-hplc peak 24C (peptide)” was tested, and the signal change (fluorescence quench assay) [1] was > 10 fold.

For “Decanoyl-Lys(Bio-X)-Thr-Pro-Thr-Ala-Lys-Ala-Ala-Ser-Lys-Ile-Asp-Asp-Gly-Lys(Flu)-Asp-OH (peptide)”, the signal change (fluorescence polarisation assay, developed with avidin) [1] was > 150 mP.

With “Decanoyl-Lys(TAMRA)-Thr-Pro-Thr-Ala-Lys-Ala-Ala-Ser-Lys-Lys(Flu)-Asp-Asp-OH, prep-hplc peak 24D (peptide)” the signal change (fluorescence quench assay) [1] was > 10 fold.

With “Decanoyl-Lys(Flu)-Thr-Pro-Thr-Ala-Lys-Ala-Ala-Ser-Lys-Lys(Bio-X)-Asp-Asp-OH (peptide)” the signal change (fluorescence polarisation assay, developed with avidin) [1] was > 150 mP.

For “Decanoyl-Leu-Thr-Pro-Lys(Bio-X)-Ala-Lys-Ala-Ala-Ser-Lys-Ile-Asp-Asp-Gly-Lys(Flu)-Asp-OH (peptide)”, the signal change (fluorescence polarisation assay, developed with avidin) [1] was > 150 mP.

B1: S. aureus SpsB signal peptidase (protein)
chain: MKKELLEWIISIAVAFVILFIVGKFIVTPYTIKGESMDPTLKDGERVAVNIIGYKTGGLEKGNVVVFHANKNDDYVKRVIGVPGDKVEYKNDTLYVNGKKQDEPYLNYNLKHKQGDYITGTFQVKDLPNANPKSNVIPKGKYLVLGDNREVSKDSRAFGLIDEDQIVGKVSFRFWPFSEFKHNFNPENTKN
B1 was tested, and the “catalytic efficiency kcat/Km (fluorescence polarisation assay)” value [2] was “kcat/Km >/=8000 M^-1 sec^-1”, the “kcat/Km (fluorescence correlation spectroscopy assay)” value [2] was “kcat/Km=6800 M^-1s^-1” and the “catalytic efficiency kcat/Km (fluorescence quench assay)” value [3] was “kcat/Km >/=5000 M^-1 sec^-1”. For the same molecule, the “catalytic efficiency kcat/Km (fluorescence quench assay)” value [4] was “kcat/Km >/=5000 M^-1 sec^-1”, the “catalytic efficiency kcat/Km (fluorescence polarisation assay)” value [5] was “kcat/Km >/=8000 M^-1 sec^-1” and the “catalytic efficiency kcat/Km (fluorescence quench assay)” value [6] was “kcat/Km >/=5000 M^-1 sec^-1”. The “catalytic efficiency kcat/Km (fluorescence polarisation assay)” value [7] was “kcat/Km >/=8000 M^-1 sec^-1” and the “catalytic efficiency kcat/Km (fluorescence polarisation assay)” value [8] was “kcat/Km >/=8000 M^-1 sec^-1”.
